{"source": "paper PMC7064771", "about": "“Repurposed Drugs That Block the Gonococcus-Complement Receptor 3 Interaction Can Prevent and Cure Gonococcal Infection of Primary Human Cervical Epithelial Cells” (mBio, 2020)", "key": {"[1]": {"molecular_target": "recombinant human CR3 I-domain (I-domain of CD11b) (human)", "assay": "SPR"}, "[2]": {"molecular_target": "recombinant human complement receptor 3 (integrin αMβ2) (human) (UniProt P11215)", "assay": "SPR"}}, "note": "pKd: −log10 of the molar value."}
{"substance": "N. gonorrhoeae MS11 wild-type pilin (PilE) modified with the Gal(α1-3)diNAcBac disaccharide (from UniProt P02974 8-165) (natural protein)", "values": [{"measurement": "pKd", "setting": "[1]", "result": 6.46}, {"measurement": "pKd", "setting": "[2]", "result": 6.04}]}
